In the DeepSol protein solubility set:

Assay: soluble on expression in E. coli; label from the status in PepcDB or PDB records
With “SLQHAPLNFVPDAAKVPPTPGQSPNARWSREAIEALFALPFNDLLFQAQQVHRAHFDANAVQLSTLLSIKTGGCPEDCSYCPQSARYDTGVEAEKLMPIDTVLEAAARAKQNGASRFCMGAAWRNPKPHQLDAVADMVRGVKAMGLETCVTLGMLKQEQAQQLKDAGLDYYNHNLDTAPEFYGEIITTRTYQDRLDTLEHVRDAGINVCCGGIVGLGESRHERAGLVAELANMEPYPDSVPINNLVKVEGTPLAGNEALDPFEFVRTIAVARITMPKAMVRLSAGREAMDDALQALCFMAGANSIFYGEKLLTTDNPEADADRKLLARLGMRVEVQDHLHQAEGAQHSHSSHCHIDITPADEG” the “soluble on expression in E. coli” value was “soluble”.
With “MDLKITNGFYDPSHLSYEVVERKGLGHPDTLADGIAEQIEIDYSLYCLDKFGVIPHHNFDKIIIRGGHSVQDFGGSDFIEPIKIIFLGRASKKCFNSSIPLFKIQKKAATKYLNRILPNLDVENYVEFETLTSDFTTKTNWFSPEAIEDLPEYLDVPKANDTATMISYWPLTISEELALMIEGYFYKLDKNELPTPRFTKMGGDIKVMVVRNDLEYSIRINFPLISKFFNNDIESQLYVDKHVEKIKKYIEQKYKNISFSIDYHYYLTTTGSCIDFGEEGAVGRGNKTHGIISSFRPNTMEAPAGKNCTYFVGKVWGFLSDTIAKEIYEAFNTPCQIIMQLNIGSKLYRPTHLFIQTEESVDQERVLEIVNRHLNNGKQNTNLILSTQHFIPKTNVYDG” the “soluble on expression in E. coli” value was “not soluble”.
For “MEPTGLMVAAPTASLPEAIGGERNWDYRFTWIRDTAYVIEALSSIGYKYEATEFLYDMMDMITRDNRIRTIYSIDDSNDLEERIIDYEGYRGSRPVRIGNKAVDQLQIDQYGSIVRAIHSMAKAGGIVNSYLWDFVEQVMAKIEYLWKYPDSSIWEFRTEPKQYVYSKVMSWAAFDSAISMAKDLGLSAPIKQWKSIQDEIKKEVLEKGFDTDTNSFVQYYGSKNIDAALLRLPILGFIPANDEKFLGTLSRIEKELMVDGYLFKRYREDDGLKGDEGSFLMLTFWYIEDLILMKRLKKAREVLESVLEKANHLGLYSEEIDEKSGDFLGNFPQALSHLGVIRVAPKLEEALLKRTSKINSLEHHHHHH”, the “soluble on expression in E. coli” value was “not soluble”.
For “MAHHHHHHMKLLLQADTPGGAAEREANPKYLSTDTLIIVPGHGVLNAPNASEWKNESEWCLEPHQLRAGVVLPLCFASHIRRGLEILRDQINTSILIFSGGQTCGIAGPRSEALGYYIVAKESKLFGIFEPEYVAKDIMNGRIFTEEFARDSYENLLFSIARFYEVTGHFPGSVVVVGWKHKAERFTMYHREAIRFPADKFTYVGLDFADAEPFVEDLQPYQVAKPYTDENALSSVSKDMYLCDAGRRTRSKRNPYFRVPPYLVSCPPLRQLLQHCGPELIDTRRVPWK”, the “soluble on expression in E. coli” value was “not soluble”.
In the case of “MAHHHHHHMKGGKQKFDRAIHKTEGMDGALPNEVLEPLEEVYKPSLRVDVTAEPPEENENSTGTTPVTSVTPHVSTNIFVAGLPPSWDENDLRKKFQEFGEIISTRLVRQRHFAFVMFRRPESAHAAINATHLTHPTPNSSMFLHVSIAMHDEGVDEIPNDRIFIRGLPQWANKDHLRHCFSRFGSIVDSAVLMNPLGQCKGSGFVQFSSIDEATEAIKARKTIRIENWDAELEIKYSETAEVRQQRQERNKNRQRHSPKYGQHQLQYQLFNSSASVVSPIPAFPVLGMSAPFPFFYPRPALSPAASPHIIYSPMVPSPVVPVYPSPPVVFKSKLDLFPSSGDLLFTGVSLTESTLLSLLQCYGKVESKDIFDDAGAAVRMVDRGLHAIIVQQLNGTIFPDGKVMSVVLYP”, the “soluble on expression in E. coli” value is reported as “not soluble”.
In the case of “MAHHHHHHSLAKRIVGSTPKQDGFRMPGEFEPQEKVWMIWPERPDNWRDGGKPVQEAFTNVAKAISQFTPMNVVVSQQQFQNCRRQLPPEITVYEMSNNDAWVRDCGPSFVINDHGEIRGVDWTFNAWGGLVDGLYFPWDQDDLVAQKICEIEHVDSYRTDDFVLEGGSFHVDGQGTVLTTEMCLLSEGRNPQLSKEAIEQKLCDYLNVEKVLWLGDGIDPEETNGHVDDVACFIAPGEVACIYTEDQNSPFYEAAQDAYQRLLKMTDAKGRQLKVHKLCCPVKNVTIKGSFKIDFVEGTMPREDGDICIASYMNFLITNDGVIVPQYGDENDHLALEQVQTMFPDKKIVGVNTVEVVYGGGNIHCITQQEPKREG”, the “soluble on expression in E. coli” value is reported as “not soluble”.
With “MEHLFGKWLPDLPAAISDGISLPMVRLLHTRSLTAALRALPHTFSVELLKLGELETECGGRLVREVLLKLDRIPVVEARSECRIGSAFWQNILDCGTRPLGERLFQADLEGARSAFEFAVAGEGCGRYFAARRSRFSRHGEEMLLTEYFLPELKRFIG” the “soluble on expression in E. coli” value was “not soluble”.
With “MGSDKIHHHHHHMQSIPHVDMRRYQNDFDAFTQDVGNGYEKYGFIALTQHGVDTALIERALDTCRELFALPEDVKKQYHRPGQGGARGYTPFGTEVAKDAKHVDLKEFWHVGREVEGEPAYPQLLPNVWPQELPKFKDDMLAIYAALDNLGNQVLEALSVYLGQPKDFFRNKVNNGNSILRPLHYPPIIDEDTPSVRAGAHEDINVLTLLVGSREPGLEVLAKDGTWVPVTIIEGAIICNVGDMLQRLTNHVLPSTTHRVVNPPAPFNEKSRYSIPFFLHFNPDVMITPLESCISDENPQRDEPITADDYLMQRLREIGLIKD” the “soluble on expression in E. coli” value was “not soluble”.
For “MWRLTRKIGTRIHISNQLSPIFNKAIGTVPVFRFYSSSPEQKYRKKLLEEAQKQGFNSIEELKNHLKETIESKKREFNKIDPLKELEDYQQKTQMENNNSKHLMTKSRSPLDPSAPKVPFKTLDSFLDVGKLKDLSKQEVEFLWRARWAQKDNTLCAVIPVSVYDKMMANARNNPIFVLPLPRQVQSEDAKPNEEQGMELHYIQWQFVGPQTTHCMMTSLAEYKLHQEFARPHTTLQFHSDLVKDKGIVFMNGHVEPDTNVNVQDAQLLLLNVQRFYGAMGEETPVAKQRVQLLRDFSKASPGFTVEKLISLSQSMEN”, the “soluble on expression in E. coli” value was “soluble”.
For “MTSNKNVKTLDEAIRELTRAKAILDSARPTAVNLVWATSRMLTLAKNAVENGNAKTINELIDLMKVEAKRIFDEEYDAEIQMGLYGLEKLNDSDT”, the “soluble on expression in E. coli” value was “not soluble”.
